One molecule from publication PMC5063967, “EIN2-dependent regulation of acetylation of histone H3K14 and non-canonical histone H3K23 in ethylene signalling” (Nature Communications, 2016) can be followed below.

This experiment deals with T1, MBP-tagged EIN3 purified from E. coli (Arabidopsis, UniProt O24606 1-628).
T1 construct: also called ETHYLENE … 3; source: E. coli, purified
T1 sequence (looked up): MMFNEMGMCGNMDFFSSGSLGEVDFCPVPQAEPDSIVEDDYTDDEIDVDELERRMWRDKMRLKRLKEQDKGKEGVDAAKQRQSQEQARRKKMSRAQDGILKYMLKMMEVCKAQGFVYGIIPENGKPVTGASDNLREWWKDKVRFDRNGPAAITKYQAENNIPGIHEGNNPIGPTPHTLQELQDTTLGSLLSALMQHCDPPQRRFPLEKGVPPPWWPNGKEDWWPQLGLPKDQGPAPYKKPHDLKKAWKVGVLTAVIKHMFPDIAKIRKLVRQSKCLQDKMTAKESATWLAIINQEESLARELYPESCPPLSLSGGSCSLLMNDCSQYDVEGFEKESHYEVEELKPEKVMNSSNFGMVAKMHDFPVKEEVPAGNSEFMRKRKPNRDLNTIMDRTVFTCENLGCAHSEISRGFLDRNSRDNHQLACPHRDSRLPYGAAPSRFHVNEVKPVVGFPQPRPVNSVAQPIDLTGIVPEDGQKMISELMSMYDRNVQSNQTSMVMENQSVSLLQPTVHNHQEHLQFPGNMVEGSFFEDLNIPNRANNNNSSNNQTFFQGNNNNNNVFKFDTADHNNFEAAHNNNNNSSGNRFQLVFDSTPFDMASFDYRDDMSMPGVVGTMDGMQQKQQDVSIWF
Put plainly: pull-down; in vitro GST pull-down; GST-tagged ENAP1 and MBP-tagged EIN3 purified from E. coli. Particulars: both partners purified.

B1: GST-ENAP1, full length, purified from E. coli (natural protein, Arabidopsis, UniProt Q8VZI9 1-249, looked up)
chain: METTPETQSKTHRLPAGREDWWSEDATATLIEAWGDRYVNLNRGNLRQNDWKEVADAVNSSHGNGRPKTDVQCKNRIDTLKKKYKTEKAKPLSNWCFFDRLDFLIGPVMKKSSGAVVKSALMNPNLNPTGSKSTGSSLDDDDDDDDDDEEDDDDAGDWGFVVRKHRKVEDVDSSEGSAFRELARSILKLGEAFERIEGKKQQMMIELEKQRMEVAKELELQRMNMLMEMQLELEKSKLGKRRAASGKKL
notes: ENAP1, encoded by at3g11100, Arabidopsis, full length; The methods of the pull-down name the fusion protein 'GST-CD3'; also called GST-labelled ENAP1; GST-tagged ENAP1; source: E. coli, purified (glutathione Sepharose 4B)
Regarding B1, the binding result is “binds”.
